Laboratory results from paper PMC314469, “Protein Interaction Networks by Proteome Peptide Scanning” (PLoS Biology, 2004).

T1: amphyphisin SH3 (AMPH_HUMAN), P49418
T1 chain: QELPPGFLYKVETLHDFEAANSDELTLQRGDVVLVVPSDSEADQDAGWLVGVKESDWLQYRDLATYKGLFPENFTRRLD


Key:
[1] = target: endophilin SH3 (SH3G2_HUMAN), Q99962; assay: SPOT array
[2] = target: T1, amphyphisin SH3 (AMPH_HUMAN), P49418; assay: SPOT array

| Binder | normalised SPOT signal, Boehringer light units (BLU); mean over the file's lines of this peptide [1] | normalised SPOT signal, Boehringer light units (BLU); mean over the file's lines of this peptide [2] |
| --- | --- | --- |
| GAWPLKRPGRISSQ [Q9NXX3 159-172] | 213 | 1500 |
| GAFQPGRPLRVVAT [O60560 190-203] | 148 | 1260 |
| FRRVLLRPSRRVRS [P32745 324-337] | 889 | 5790 |
| FSHILKRPDRVLLI [P33076 484-497] | 292 | 879 |
| FTDLPKKPPPPEVT [Q96QH2 75-89] | 59.2 | 88 |
| AKLFPGRPPVKKLL [CAD39032 203-217] | 13400 | 93.5 |
| FSHLLRRPPPEAPR [O76081 86-99] | 5220 | 172 |
| GDSKLFRPRRPRSS [O94820 218-231] | 233 | 970 |
| GAGQPRRPEAEPGQ [Q96AA2 6283-6296] | -0 | 10.5 |
| GDPAPSRPLRAHFL [Q9P244 448-461] | 5050 | 9150 |
| GDAPPPRPPPPVRP [CAD38936 189-203] | 14700 | 1250 |
| FWQSPKRPPSPIKF [Q9H3T7 733-747] | 12400 | 349 |
| AKINLKRPPTAGSQ [Q9HA08 198-211] | 59 | 0 |
| GEDVLARPQRFAQL [Q96LA8 243-256] | 7.6 | 194 |
| GSVRPARPERRLRS [Q9Y5B0 72-85] | 18700 | 12500 |
| FTGPPQKPPRLGAQ [Q14289 851-865] | 76.1 | 2710 |
| FYRDLRRPFSAPDA [Q9HB63 378-391] | 175 | 53.3 |
| FVTELRRPVAVRAK [Q9NW72 376-389] | 117 | 39.9 |
| GAASISRPTRAVPS [P35568 971-984] | 202 | 957 |
| GAARLGRPGRSSLP [P34925 3-16] | 129 | 129 |
| FVLRPLRPSRRYST [Q14539 22-35] | 18800 | 10100 |

| Binder | normalised SPOT signal, Boehringer light units (BLU); mean over the file's lines of this peptide [1] | normalised SPOT signal, Boehringer light units (BLU); mean over the file's lines of this peptide [2] |
| --- | --- | --- |
| FTKTIKRPFGVKYN [P17752 389-402] | 61.9 | 22.4 |
| FSSFLKRPKSQVSE [P11171 83-96] | 51.3 | 37.5 |
| FVLVPLRPPSPARS [O75055 1510-1524] | 17300 | 1620 |
| GALPPRRPERPVGP [Q9NYR0 415-428] | 13800 | 3480 |
| GALHPPRPGRGLGQ [Q9UHX5 114-127] | 78.6 | 441 |
| AKDLLRRPFDLMLV [Q9BZW5 208-221] | 71.1 | 31.3 |
| FSFSLPRPGRRGSR [O00538 575-588] | 2080 | 1090 |
| FSESLKRPWEDDPP [Q9Y384 121-134] | 35.3 | 58.5 |
| GARSPKRPRLQLPG [Q9BWN1 26-39] | 1210 | 18.6 |
| GASLFNRPTKLFEP [O75077 489-502] | 66.2 | 59.5 |
| GASSIARPFRRDSQ [Q9Y6N3 202-215] | 120 | 671 |
| GAKGPRRPGEEAEL [O15417 267-280] | 39.5 | 0 |
| FYYRPPRPPKGASK [P46527 86-100] | 4600 | 3820 |
| GAPGPRRPFQQKPL [Q9BYB0 718-731] | 2000 | 6.3 |
| FVYNFIRPVKGKVS [Q9NUW7 10-23] | 122 | 190 |
| FVTELRRPDAVRTK [Q9NQ90 781-794] | 43.1 | 38.2 |
| FSSVPSKPPMSLEP [Q96E32 219-233] | 35.9 | 30.1 |
| GDEPLPRPPRGAPH [Q92529 130-143] | 253 | 155 |
| FVSPPNRPFRSKND [Q07954 3693-3706] | 224 | 3720 |
| GAGSPARPPSPRLD [BAC04581 11-25] | 15300 | 339 |
| FVNEIRRPNGENYA [Q9UBW7 1125-1138] | 12.8 | 23.8 |
